Test: soluble on expression in E. coli; label from the status in PepcDB or PDB records

**Q.** Which “soluble on expression in E. coli” value does the source give for “MAGNANSVDEEVTRILGGIYLGGIRPIIDHRPLGAEFNITHILSVIKFQVIPEYLIRKGYTLKNIPIDDDDVTDVLQYFDETNRFIDQCLFPNEVEYSPRLVDFKKKPQRGAVFAHCQAGLSRSVTFIVAYLMYRYGLSLSMAMHAVKRKKPSVEPNENFMEQLHLFEKMGGDFVDFDNPAYKQWKLKQSIKLDPSGSELVSNSGMFKDSESSQDLDKLTEAEKSKVTAVRCKKCRTKLALSTSFIAHDPPSKESSEGHFIKRAANSHRIIDIQESQANCSHFFIEPLKWMQPELQGKQELEGKFSCPGCSSKVGGYNWKGSRCSCGKWVIPAIHLQTSKVDQFPLQSTALPNMVNFESEKVNR” here?
**A.** not soluble

**Q.** Which “soluble on expression in E. coli” value does the source give for “GPGSMSDSTTEKIFLLYATFSEIHRELLMEHHKTHPEHKTYMDILNYLREEEGVKQSLLKKNSNWEILQQKKLTAIENVAISVKREIPGGFSNSAIVRNALPHAVVLSGFSTSSQTNENWVRLHMQLLDEQTKLVREYNDKRFLNASVKRMIVLCHEHGCDGVAGRLKREFGVSDKMHCWSMLDAYTTMSQWGLIDQLGDVKNKNKPVIGASAFINTLLACGRQEQAKQYIHKIPQIEQRMEYYLLCSDWEGAGADCRRHGEPDLLTQLKDRVKGDASAVQLIDKGWNSVQESGAVKLAKLFA” here?
**A.** not soluble

**Q.** Which “soluble on expression in E. coli” value does the source give for “MLKFENVTKSFKDGNRNIEAVKDTNFEINKGDIIALVGPSGSGKSTFLTMAGALQTPTSGHILINNQDITTMKQKALAKVRMSEIGFILQATNLVPFLTVKQQFTLLKKKNKNVMSNEDYQQLMSQLGLTSLLNKLPSEISGGQKQRVAIAKALYTNPSIILADEPTAALDTENAIEVIKILRDQAKQRKKACIIVTHDERLKAYCDRSYHMKDGVLNLENETVE” here?
**A.** not soluble

**Q.** With “MGSDKIHHHHHHMHVYESDVSWIDDRRTEVSVGDHRIEVDSPPEFGGPEGQLYPETLFPSVLASCLLTTFLEFKDRMGINLKSWNSHVTAELGPSPEKGFKFHRIKIHVKIGVNDEDKEKIPRAMQLAEKYCFISRAIRNNVEEIVDYEFV” as the sequence, how does the “soluble on expression in E. coli” value read?
**A.** not soluble

**Q.** With “MKKPNHSGSGQIRIIGGQWRGRKLPVPDSPGLRPTTDRVRETLFNWLAPVIVDAQCLDCFAGSGALGLEALSRYAAGATLIEMDRAVSQQLIKNLATLKAGNARVVNSNAMSFLAQKGTPHNIVFVDPPFRRGLLEETINLLEDNGWLADEALIYVESEVENGLPTVPANWSLHREKVAGQVAYRLYQREAQGESDAD” as the sequence, how does the “soluble on expression in E. coli” value read?
**A.** soluble

**Q.** Which “soluble on expression in E. coli” value does the source give for “GPGSMNERLEDIALTLVGAGKGILAADESTATIGKRFESIGVECTEDNRRAYREMLFTAKEAMESAISGVILFDETLRQKASTGQMLTDLIRDAGAVPGIKVDTGAKPLAAFPQETITEGLDGLRERLKDYYTLGARFAKWRAVIAIDAQTLPTRGAISQNAQALARYAALCQEAGLVPIVEPEVLMDGPSRQHSITRCFEVTKVVLHTVFKELFEARVLFEGMILKPNMVIDGKDARIASVEEVAEKTVHVLKQTVPAAVPGIAFLSGGQTDEEATAHLSAMNALGALPWKLTFSYGRALQAAALKAWAGKNENIVVAQKAFCHRARMNHLAALGQWTKDQEKSCA” here?
**A.** soluble

**Q.** With “SAESSKLSATTVEAAPAMIKAKDVISPSEKEESDQTEITKVSVLKNLDEKEMIKEFADRLQRLEAKVDLLVTKADLLAIKADIQELLISAKGEKVPAMKTSAKASSESDDSYMDTSSEDESSSAEEPVNKPAASAAKPATKDSLFSAGFKPAAKDSLFSAGFKPDSLFSAGFEPAAKDSLFSAGFKPGSLFSAGFEPAAKDSLFSAGFKPDSLFSVGVKPAAKDSLFSVGVNGRSFSVTGFDASLPVDDIKSALSKYFSSFGEITRVFVPPSHGTGGSLGYAYIDLKEGAEKALELGRHDVGGWDLVVGKAEPIRSGSTWPFPGRCGNQGRCTFC” as the sequence, how does the “soluble on expression in E. coli” value read?
**A.** soluble

**Q.** For “MGSDKIHHHHHHMSFRSGVATFAGKSSYWFLHTFLHGGSSLPGKITLKLDPNILRTLGAKYDVIVITGTNGKTLTTALTVSVLHEKYPAILTNPTGSNMEQGIVTTFLNAKNPKTGRPLAVLEVDEANVIKVTHYIEPKAFVFTNIFRDQMDRYGEIYTTYQKILDGVALAPKATIIANGDSPIFNSKELPNPIQYYGFDNEPDTDMKAKPNTDGVLCPVCQHILHYHSLTYSNQGKYFCPNCGFARPELTYRLTALGEQTPTSSHFDVDGHPFTIQVGGTYNIYNALAAYAVGRFMGVAPEQIAHAFTANERVFGRQEVINVGDKRVTIILVKNPVGLDQVLHMIGTDKEQFSFVALLNANYADGIDTSWIWDGDFEQLTALDIPTFITGGERYKDITFRLKVAGVPDDQHIVEPDLEKVVDRITDLPTERVYVLATYTAMLQLRKILATKGYIKEGFGA”, which “soluble on expression in E. coli” value is on record?
**A.** not soluble

**Q.** Which “soluble on expression in E. coli” value does the source give for “LKVSEPAPKGFLIIGANDVARQVGLAIAKYDCRVVVTDSNWDYIRQARMTGLEHYYGNPISSHAEDYLNLIGIGHVLALSPDKHFNIMACMQFLSDFGDKRVFCLNDNPTNNVSEKHLVAQEYHGLPFLGGEVSYKKLASLVGQGAEVKHTKLS” here?
**A.** not soluble

**Q.** Which “soluble on expression in E. coli” value does the source give for “MSLGKDVRFHTENWSYYPWRLWAEQFLQFEDWCLQASSKVPGIPLHVKRTVTFSTRQILDALSPSNFVLTNPDLLQETIRSNGQNLIRGTELAFQDFVEKITGSPPAGVENFIPGKQVAVTEGKVVYSNHLIELIQYTPQTEKVYKEPILILPAWIMKYYILDLLPENSLVNWLVRQGHTVFIVSWRNPTKEDRNIGLDDYYKLGAMDAINAVSNAIPHTKIHLMGYCLGGTLALLTAAAMAHDHDNRLKTLSLLAAQGDFIDAGELLLFITKSEVSFLKSMMWEQGYLDTKQMSGTFQMLRSYDLIWSKMVQDYMHGTQRGMIPLLAWNADATRMPYKMHSEYLEKLFLNNDFAEGRFILDGKPVVGENIRMPAFVVSTEKDHVAPWKSVYKTHLLINSDITFVLTNGGHNAGIVSEPGHEGRYYRIRERKMDSTYLDPTNWLKKAELREGSWWIAWHDWLVNHSSQKQVSAPKLDKNLPNAPGKYVLQKEGHHHHHH” here?
**A.** soluble

**Q.** Which “soluble on expression in E. coli” value does the source give for “MAHHHHHHMDSEPFAFDGEGSRARQSEYVDMTLVHLGMKLRDMGIAFEDMELATVPTQFAEQLLSYIEAFEERESAIRAATTEHRAQLEQEQKRLESLQEATEKARGEVAILSERISSALSAFRGEEKLEAQHRRERQRDVQDIVRQIEKKELELRRETMERDRLSKMLKKVKK” here?
**A.** soluble

**Q.** With “MSLYSDQLVCPAHVPRGSPEGRVDAIAAMVTTRTAVQAPVERRTALFVNGQAWLTAQTTPHDLADWAVGRLCGEGLIAGPEEIAHLAVDEAGPCVHAVLPRVRTPAPPAPVAPGPRVAEAQLLRWMQEMLAQAPLYRATGGMHVAMAVRADSGEQIVREDIGRHQAVDKVLGAARLAGWPPAQVVVLTSGRISAEMCARVARFGAPVCASRTAATDEAWALATRLGMDLVGYVRTAASLIVYTTGNRVARRIEPEGHHHHHH” as the sequence, how does the “soluble on expression in E. coli” value read?
**A.** soluble

**Q.** Which “soluble on expression in E. coli” value does the source give for “MSLILRWGIIGPGWIAERFVHSLKTYSRQQVVAVASRSQAKADRVAAEWGIPQAYGQVEEMLARPDIDAVYIATPHNHHFPDGMQALKAGKHVLIEKPFALNLGEGRELQAEAARQEKLALEAMWCDYAPKYDVIRQLLEDGALGDLHTLLADHGEYFTRDHRIFNADLAGGPMMDLGSYVTSFALMVGGMPQEIVARGSATAEGLNGQTSMLFSWQNGMQGLLNTTLFSNTPGGAVVAGRQATLTIDGQFYAPGGFTLAASQGGQVLRWEEPRNRYDQLFWQAEHFAWCIGQGLQDSPLRPLSRVLQNLQVMDEVRRQVGAVFNEEREGHHHHHH” here?
**A.** not soluble

**Q.** Which “soluble on expression in E. coli” value does the source give for “MSLKQLPKREELPENLTWDLTKIFSSDQEFDEKYLELSEELKQSEKHKGTLDQGASQFLNAIEFVLRVYRQTEVIYVYAHLKNDQDTGNTDYQALYARASSLFSKVSEAVSWFEPEILQLSDDQIWQYFKEEPKLEVYRHYIQQIVDNRAHVLSAEQESLLAGAGEIFDASSDTFAVLNNADLVFPTIEGENGEIVQLSHGVYGQLLESTDRRVREAAFKGLYSVYEQFRNTFASTLGTHIKGHNFKAKVRNYSSAREASLSNNHIPESVYDTLVDVVNKHLPLLHRYMELRKRLLEVEKLHMYDLYTPVLGEAPITFTYEEAKEKALEALKPMGEEYMAIVEKAFSERWIDVVENKGKRSGAYSSGSYDTNPYILLNWHDTLDQLFTLVHEMGHSVHSYFTRSNQPYVYGDYSIFLAEIASTTNENILTEYLLETEKDPRVRAYVLNHYLDGFKGTVFRQTQFAEFEHFMHTEDEKGVPLTSEYLSDSYGKLNAKYYGPAVEEDPEIKFEWSRIPHFYYNYYVFQYSTGFSAASALAKKILNQEPEALENYLAYLKAGNSDYPVEVMKKAGVDMTQAAYIEDAMSMFEQRLNELEELIDREGHHHHHH” here?
**A.** soluble

**Q.** For “MGSDKIHHHHHHMTTVIAGVSGAIGGALARRYLSSYPDRSLIGLCRRPETAPDDLRNHSGVRLMAWDAEDEQRLDVAEFKAVLEASGPVYTVIYAGGLLHDGQMFPEKRLEDIDGRSMMRSYQVNCLGFVSLMQRLAPALRGKHFKRIAAVSAKVGSISDNQLGGWYAYRASKAALNMVVKNLSIELSRRYAPLACVSLHPGTTLSSLSQPFQQSLEQLTVHEPEQTASNLFSVLESLDARDNGRFISWDGSDLPW”, which “soluble on expression in E. coli” value is on record?
**A.** not soluble

**Q.** With “MNVLKLTNGREISYLNEVEIRMGIDELNGEERYKKELENMETSDITVHKYEGGFKIWECTVDLCDYIEENQTLFAGKSVLELGCGAALPSILTAVHGAKEVFAQDFNASVIEFFTLPNFEENPHSAVVQGEAMGWEEVPNRLSGRKFDFILSSETIYNEDDYQALHDAVAATIKDDGVAWFAAKFFYFGVGGSVPAFCEFINQRGILQASEAKVIAASVPRRIVEIRKK” as the sequence, how does the “soluble on expression in E. coli” value read?
**A.** not soluble

**Q.** With “MNYRDLTLRERQVLGIIIQSYVVSAMPVGSRTIARNYNLGLSDATIRNVMADLEADGFISQPHTSAGRVPTDKGYRYYVDLIMNVSRIDEEEKRMIDDRFSNRNSELKGTSAEVLGTAARVLGSISRQLAVVLPPRLSNAVFERLDIVQLASSRIMVVIAIQSLFVKTIVMELNAEISRQKIDAVVDVLNERLPGLTLEEIRSTIAQRLSDFKGSEELMNSIVSSADTLFDESSILEQLYVSGTENIVDQPEFKQPEKVRDIITMIEDKFGMARLVDNAVPSALRQVSECEVAISIGTENRTGKAADLTIVSSPYFAGKMIGRVGVMGPKRMNYEHAVRVVNYMAGCLSEALSGNN” as the sequence, how does the “soluble on expression in E. coli” value read?
**A.** not soluble

**Q.** Which “soluble on expression in E. coli” value does the source give for “MGSDKIHHHHHHAATVKLTIIKSDLDMKASGGTGTVEFAATGTVTATVNADWCQVIEVADHKVSISVDANTGYPGRSAQIVLTDGVSTQQATILQEGAIWKYNRDATYFTLTDAAEEVPVEMSSNLPIQVSIPADASQWLSYEMTSDGFKFIAKENLTGKIRSAIVKVTTGIREIEYALLQYDIDDLLGQWTGVVKVVATAFGINQVLSLEENTQIVKNPGGNGYIFQLPMTRLLGATIVLAVTYQDGALVITTPQQQNYALSDGQGGVMYGSIITKTDDGLYLQGKIILSPVLMNDGQVALAYITDAYMSMGLFKGRVPSTANYAGLSIDFPAILMQYAE” here?
**A.** not soluble

**Q.** With “GPGSMPTAKVTEKEAACVTALKGEYPASKADPADAGFLSDSTYLRFARAHDGNVKKASELLGATLRWRKQTKPYAITMEEVQNAMKQTTMYCGGRCNIGCPVIAMVPGMQNDCTVEERTKQLVYIMEETHRKGYERITWIIDFGAMGSHRDERSKEARKETMKILQDYYPERMARILLYRTPWYIRMLLGAAKMFMDARTAAKVYNAGRTIEALEKFVDRDQVPPVCGGTMKGSALSHLEELPSLNSE” as the sequence, how does the “soluble on expression in E. coli” value read?
**A.** not soluble

**Q.** With “MGHHHHHHSHPAPAQLVQKAHELMWYVLVKDQKKMIIWFPDMVKDVIGSYKKWCRSILRRTSLILARVFGLHLRLTSLHTMEFALVKALEPEELDRVALSNRMPMTGLLLMILSLIYVKGRGARESAVWNVLRILGLRPWKKHSTFGDVRKLITEEFVQMNYLKYQRVPYVEPPEYEFFWGSRASREITKMQIMEFLARVFKKDPQA” as the sequence, how does the “soluble on expression in E. coli” value read?
**A.** not soluble

Source: the DeepSol protein solubility set
